One data set has as its target T1, Pab-AGOG WT (Pyrococcus abyssi, UniProt Q9UZY0 1-239).
T1 sequence: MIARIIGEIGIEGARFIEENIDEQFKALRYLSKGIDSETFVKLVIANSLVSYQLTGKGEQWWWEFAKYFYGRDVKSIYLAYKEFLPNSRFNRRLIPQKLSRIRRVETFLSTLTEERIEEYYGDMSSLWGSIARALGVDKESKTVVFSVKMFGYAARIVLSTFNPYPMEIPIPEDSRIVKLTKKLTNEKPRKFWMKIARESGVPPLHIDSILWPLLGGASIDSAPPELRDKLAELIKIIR
Kind of data set: X-ray structure; NaBH4-trapped covalent at K142; EMSA: 0.1 nM 32P-DNA, 20 mM HEPES/NaOH pH 7.6, 100 mM NaCl, 10% glycerol, 0.1% BSA, 30 min at 4 C; 10% native PAGE at 4 C. Particulars: protein: recombinant; tags: N-terminal 6xHis (pET28a), removed by trypsin at thrombin site.

The target in another data set is T2, Pab-AGOG K142Q (Pyrococcus abyssi, UniProt Q9UZY0 1-239, K142Q).
T2 sequence: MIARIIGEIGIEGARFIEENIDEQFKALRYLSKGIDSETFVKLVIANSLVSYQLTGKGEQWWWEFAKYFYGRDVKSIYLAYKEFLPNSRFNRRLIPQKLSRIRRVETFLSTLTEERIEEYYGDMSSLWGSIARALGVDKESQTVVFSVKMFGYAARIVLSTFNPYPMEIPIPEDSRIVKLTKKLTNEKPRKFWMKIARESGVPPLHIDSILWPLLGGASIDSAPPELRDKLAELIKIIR
Briefly: X-ray structure; non-covalent, 1.25 A; EMSA: 0.1 nM 32P-DNA, 20 mM HEPES/NaOH pH 7.6, 100 mM NaCl, 10% glycerol, 0.1% BSA, 30 min at 4 C; 10% native PAGE at 4 C. Conditions: protein: recombinant; tags: N-terminal 6xHis (pET28a), removed by trypsin (as for WT).

B1: 9-mer trapped AP strand with 9-mer T (dsDNA)
DNA 1: TTTGTTTCT
DNA 2: AGAAATAAA
modifications: ring-open AP site from GO, borohydride-trapped, opposite T
Consider B1, for which, in the data set with Pab-AGOG WT, the binding result was “binds”.

B2: 9-mer GO:C duplex (dsDNA)
DNA 1: TTTGTTTCT
DNA 2: AGAAACAAA
modifications: 8-oxoguanine at position 4 (opposite C6*)
As for B2, the binding result with Pab-AGOG K142Q is given as “binds”.

B3: 9-mer trapped AP strand with 9-mer A (dsDNA)
DNA 1: TTTGTTTCT
DNA 2: AGAAAAAAA
modifications: ring-open AP site from GO, borohydride-trapped, opposite A
B3: in the data set with Pab-AGOG WT, the binding result was “binds”.

Values taken from PMC9638937, “Structural and functional determinants of the archaeal 8-oxoguanine-DNA glycosylase AGOG for DNA damage recognition and processing”.
